Data published in US20150210998.

What was measured:
[1] = target: UbcH7˜125I-ubiquitin thioester (UniProt P68036)
[2] = target: HPV16 E6 protein (recombinant, full-length) (UniProt P03126)
Chain of HPV16 E6 protein (recombinant, full-length) (P03126 whole entry): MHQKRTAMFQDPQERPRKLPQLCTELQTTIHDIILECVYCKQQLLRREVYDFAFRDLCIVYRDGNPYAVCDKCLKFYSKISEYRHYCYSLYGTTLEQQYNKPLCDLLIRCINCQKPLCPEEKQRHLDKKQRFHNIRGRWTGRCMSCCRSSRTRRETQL

Chain of UbcH7˜125I-ubiquitin thioester (P68036 whole entry, looked up): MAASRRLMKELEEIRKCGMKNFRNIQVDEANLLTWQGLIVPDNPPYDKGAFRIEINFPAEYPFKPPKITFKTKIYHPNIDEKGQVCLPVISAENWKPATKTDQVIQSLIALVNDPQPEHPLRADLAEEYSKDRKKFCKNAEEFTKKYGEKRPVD

Substance	Km- [1]	kcat of 125I-polyubiquitin chain formation in the presence of E6 [2]
GST-E6AP ligase (wild-type, bacterially expressed fusion protein)	0.058 µM	–
His6-E6AP ligase (full-length, baculovirus-expressed)	0.046 µM	0.81±0.045 s^-1 in its presence
